The source of these data is patent US20110105393A1, “METHODS FOR PROMOTING STEM CELL PROLIFERATION AND SURVIVAL” (priority 2007, published 2011).

Test [1] has as its system Notch receptor. The experiment in a line: Notch receptor cleavage (activation) in NSC cultures. Type of test: cell-based, mouse. As to conditions: effect of inhibitor; DAPT 1 μM. The protocol:
(§1) Cell culture: E13.5 cortical embryonic mouse CNS stem cells were grown as previously described (Johe, et al., Genes Dev 10, 3129-40, 1996). Cells were expanded in serum-free DMEM/F12 medium with N2 supplement and FGF2 (20 ng/ml) for 5 days under 5% oxygen conditions and were re-plated fresh or from frozen stocks at 1,000-10,000 cells per cm^2. FGF2 was included throughout the studies, unless otherwise stated. Adult rat (3-6 months old) or adult mouse (2-4 months old) SVZ NSC cultures were grown in the same medium as the fetal cultures.
(§2) Pharmacological treatments: Unless otherwise stated, the following concentrations were used: Dll4 and Ang-2 (in vitro, 500 ng/ml; in vivo 12.5 μg as a single injection), FGF2 (in vitro, 20 ng/ml), JAK inhibitor (in vitro, 200 nM; in vivo, 250 ng as a single injection), insulin (in vitro, 25 μg/ml; in vivo, 40 μg as a single injection), DAPT (1 μM), Fluorogold (0.5 μg). For the survival assays, compounds were added daily and Notch ligands every 2 days for the duration of the experiment. For the effects of kinase inhibitors on Notch activation, cells were pre-incubated for 1 h prior to Notch activation.
It was previously shown that in NSCs Notch activation leads to rapid phosphorylation of Akt (Androutsellis-Theotokis, A. et al., Nature 442, 823-6, 2006), a mediator of insulin signalling (Cantley, Science 296, 1655-7, 2002). […] Activation of the Notch receptor by addition of insulin or Dll4 was inhibited by DAPT, a γ-secretase inhibitor that blocks Notch cleavage. […] Insulin maintained STAT3-Ser727 phosphorylation levels, and acutely (1-h) induced it following a 16-h insulin withdrawal phase (FIG. 1c).

Test [2] has as its system insulin/IGF-1 receptors. The experiment in a line: Insulin/IGF-1 receptor activation in NSC cultures. Type of test: cell-based, mouse. The following applies: effect of inhibitor; DAPT 1 μM. The protocol: as §1, §2
It was previously shown that in NSCs Notch activation leads to rapid phosphorylation of Akt (Androutsellis-Theotokis, A. et al., Nature 442, 823-6, 2006), a mediator of insulin signalling (Cantley, Science 296, 1655-7, 2002). […]

The subject of test [3] is Hes3. Briefly: Hes3 protein immuno-staining in fetal NSC cultures. As to conditions: 2 day treatment. Type of test: cell-based, mouse. The protocol: as §1
Hes3 mRNA is present in fetal NSC cultures under conditions that support their self-renewal but CNTF-induced differentiation (Bonni, A. et al., Science 278, 477-83, 1997; Rajan & McKay, J Neurosci 18, 3620-9, 1998): downregulates Hes3 message (Androutsellis-Theotokis, A. et al., Nature 442, 823-6, 2006). Knockout studies have shown a role of Hes3 in self-renewal (Hatakeyama, J. et al., Development 131, 5539-50, 2004). It was investigated if Hes3 mediates stem cell functions in vitro to assess its use as a functional NSC marker. Fetal (E13.5) cortical tissue was dissociated and magnetic sorting was used to isolate a cell population that expressed AC133, an established marker of NSCs (Uchida, N. et al., Proc Natl Acad Sci USA 97, 14720-5, 2000). […]

The test system of test [4] is NSC cultures. Briefly: Incidence of Tie-2 spikes in NSC cultures. Type of test: cell-based. The following applies: for % of cells with at least one spike: NSC cultures; for spike number: thirty minutes after treatment. How it is done:
A protrusion of the cell membrane was identified in neuronal stem cells (NSCs) when the Tie-2 receptor is concentrated. This can be visualized using antibodies that bind Tie-2. The protrusion was termed a spike. These spikes appear 30 minutes after treatment with pharmaceutical agents. […] increase spike number thirty minutes after treatment. […] Thus, a novel sub-cellular structure ahs been identified. These structures could regulate the responsiveness of cells to treatments.
Thus, a novel protrusion of the cell membrane in NSCs has been identified where the Tie-2 receptor is concentrated. This can be easily visualized using an antibody against Tie-2 that recognizes a particular epitope. […] Indeed, the spike is devoid of actin filaments or tubulin. The spikes can be detected within thirty minutes of contacting the cultures with an the factors. Thus, the spikes provide a rapid assay for the effect of pharmacologic agents.

The subject of test [5] is Ang-1. The experiment in a line: Ang-1 expression in fetal NSC cultures. Type of test: cell-based, mouse. As to conditions: fetal NSCs in culture, treatment 2 days. How it is done:
as §1
(§3) Fetal NSCs in culture express Ang-1, and treatment (2 days) with Dll4 maintained it whereas CNTF reduced it. Ang-2 expression was maintained under these conditions. […] Ang-2 induced mTOR and STAT3-S727 phosphorylation, unlike Ang-1 (FIG. 2a). Ang-1, however, induced Akt phosphorylation.

The subject of test [6] is mTOR. The experiment in a line: mTOR phosphorylation in NSC cultures (Western blot). Type of test: cell-based, mouse. As to conditions: NSC cultures, 0.5 μg/ml (FIG. 2a, Example 3). How it is done: as §1, §3
Three characterized Tie-2 receptor antibodies were used to determine if the Tie-2 receptor was expressed in the immature neural precursor cells found in the SVZ of the adult brain. When ligand is bound, the Tie-2 receptor becomes phosphorylated. An antibody that recognizes the activated receptor (RnD Systems, AF2720) and another antibody that binds to a distinct site (Santa Cruz, sc-324) identified many positive cells in the subventricular zone of the adult rat brain. In regions that were more distant from the ventricle, Tie-2 was expressed predominantly on blood vessels and endothelial cells reacted with antibodies against the activated receptor. Precursor cells that proliferate in vitro can be readily derived from the fetal and adult brain. The homogeneity of these cell populations in attached culture and their potential to generate neurons and glia is supported by clonal analysis. […] This colony number assay measured the survival of precursor cells that could differentiate into neurons and glia (See, Table 1).
Background: A western blot detects proteins with antibodies after separation by electrophoresis.

Test [7] has as its system Akt. Briefly: Akt phosphorylation in NSC cultures. As to conditions: 0.5 μg/ml (FIG. 2a). Type of test: cell-based, mouse. How it is done:
as §1, §3

Consider `C[C@H](NC(=O)Cc1cc(F)cc(F)c1)C(=O)N[C@H](C(=O)OC(C)(C)C)c1ccccc1` [DAPT, reference compound], for which the “Activation of the Notch receptor by addition of insulin or Dll4” value in test [1] is “inhibited”. In addition, in test [2], the “Activation of the insulin/IGF-1 receptors by insulin treatment” value is “partly blocked”.

B1: CNTF: CNTF (577-NT) from R&D; induces differentiation of NSCs (protein, UniProt P26441 1-200, looked up)
Ciliary neurotrophic factor: MAFTEHSPLTPHRRDLCSRSIWLARKIRSDLTALTESYVKHQGLNKNINLDSADGMPVASTDQWSELTEAERLQENLQAYRTFHVLLARLLEDQQVHFTPTEGDFHQAIHTLLLQVAAFAYQIEELMILLEYKIPRNEADGMPINVGDGGLFEKKLWGLKVLQELSQWTVRSIHDLRFISSHQTGIPARGSHYIANNKKM
On to B1, for which the Hes3 protein expression entry in test [3] is on record as “lost”. Also, in test [4], the “% of cells with at least one spike” value is on record as 0.8% and the spike number entry is recorded as “do not increase”. Also, the Ang-1 expression entry in test [5] was “reduced”.

B2: Ang-1: human angiopoietin-1 (923-AN) from R&D (protein, UniProt Q15389 16-498, looked up)
Angiopoietin-1: HIGCSNQRRSPENSGRRYNRIQHGQCAYTFILPEHDGNCRESTTDQYNTNALQRDAPHVEPDFSSQKLQHLEHVMENYTQWLQKLENYIVENMKSEMAQIQQNAVQNHTATMLEIGTSLLSQTAEQTRKLTDVETQVLNQTSRLEIQLLENSLSTYKLEKQLLQQTNEILKIHEKNSLLEHKILEMEGKHKEELDTLKEEKENLQGLVTRQTYIIQELEKQLNRATTNNSVLQKQQLELMDTVHNLVNLCTKEGVLLKGGKREEEKPFRDCADVYQAGFNKSGIYTIYINNMPEPKKVFCNMDVNGGGWTVIQHREDGSLDFQRGWKEYKMGFGNPSGEYWLGNEFIFAITSQRQYMLRIELMDWEGNRAYSQYDRFHIGNEKQNYRLYLKGHTGTAGKQSSLILHGADFSTKDADNDNCMCKCALMLTGGWWFDACGPSNLNGMFYTAGQNHGKLNGIKWHYFKGPSYSLRSTTMMIRPLDF
On to B2, for which the mTOR phosphorylation result in test [6] was “inhibits”. Further, the Akt phosphorylation result in test [7] is recorded as “induced”. Further, in test [4], the “% of cells with at least one spike” value amounted to 0.8% and the spike number result is reported as “do not increase”.
